# Test results taken from the DeepSol protein solubility set.
# Assay: soluble on expression in E. coli; label from the status in PepcDB or PDB records
row,Sequence,soluble on expression in E. coli
1,MADTRPERRFTRIDRLPPYVFNITAELKMAARRRGEDIIDFSMGNPDGATPPHIVEKLCTVAQRPDTHGYSTSRGIPRLRRAISRWYQDRYDVEIDPESEAIVTIGSKEGLAHLMLATLDHGDTVLVPNPSYPIHIYGAVIAGAQVRSVPLVEGVDFFNELERAIRESYPKPKMMILGFPSNPTAQCVELEFFEKVVALAKRYDVLVVHDLAYADIVYDGWKAPSIMQVPGARDVAVEFFTLSKSYNMAGWRIGFMVGNKTLVSALARIKSYHDYGTFTPLQVAAIAALEGDQQCVRDIAEQYKRRRDVLVKGLHEAGWMVEMPKASMYVWAKIPEPYAAMGSLEFAKKLLNEAKVCVSPGIGFGDYGDTHVRFALIENRDRIRQAIRGIKAMFRADGLLPASSKHIHENAE,soluble
2,MADYLLEIGLEEIPAHLVTESENQLIERIKNFFSDNLLDYKKIQTFSTPRRLAVLVHDLSNYSQSKDEELRGPSLKVAKDESGNWSRAAEGFARSQGTSPAEFDERDGYVYLNKHIEGVSAEEILKKIGIEVVEKMKFSTYMKWADFKLEYVRPIRWLVSLLDSKIVPFQILDVKADRFTRGHRFLSGGKISISEAGDYEETLNNAYVIVDAKVRKNSIRNQIRKIADTNDWNLHVDPDLLEEVNNIVEYPTAFAGVFDDKYLNLPEIVLTTSMRDNQRFFYVTNKQGKILPHFISVRNGDSNQIENVVKGNEKVLVARLEDAEFFFEEDQKHNIDFFMKKAERLVFHEKIGTMTEHMKRVEKIAALLANQLAFNDQEKKDLKRAANICKFDLTTAMVGEFAELQGTMAGIYAKIFGENQTVCQALSEQYLPTSSEGDLPKSKVGAMLALADKLDTLFSFFAAGIIPSGSNDPYGLRRAALGIVRIIGQQKWNFSVSKLLHSLKTAVDKHEDGFLIDFADTKEISRKVIEFFLDRIRQQSSDIRYDLLDASTGKVNEGIINY,not soluble
3,MAEAPPVSGTFKFNTDAAEFIPQERKTSGLNCGTQRRLDSSRIGRRNYSSSPPCHLPRHIPYEDISAVHQHSYASGSKPKSPQGFFQSSNKSLKNHGLQNQPWQKARNEKHQNRNKKAQGLSEQTSDTSSLESVARSESGTNPREHSPSESEKEVVIADPRGAKPKKAAQLTYNYGRGPKAKGRLRSEWGNRMSPKSEDENTRPVAISHTDSSDASCRKPVVDPCVCRRNEQRRYPQKRPPWEVEGARPRPGRNPPKQESQRHINAGPKTNMSPIPKDNLRERPTKSACDTGNLAVVSKSSRRVNQEKTAVRRQDPQVLSPFPRGKQNHMLKNVETHTGSLIEQLTTEKYECMVCCELVQVTAPVWSCQSCFHVFHLNCIKKWARSPASHADGQSGWRCPACQNVSAHVPNTYTCFCGKVKNPEWSRNEIPHSCGEVCRKKQPGQDCPHSCNLLCHPGPCPPCPAFTTKTCECGRTRHTVRCGQPVSVHCSNACENILNCGQHHCAELCHGGQCQPCRIILNQVCYCGSTSRDVLCGTDVGKSDGFGDFSCLKICGKDLKCGSHTCSQVCHPQPCQPCPRLPHLVRYCPCGQTPLSQLLEHGSNARKTCMDPVPSCGKVCGKPLACGSSDFIHTCEKLCHEGDCGPCSRTSVISCRCSFRTKELPCTSLKSEDATFMCDKRCNKKRLCGRHKCNEICCVDKEHKCPLICGRKLRCGLHRCEEPCHRGNCQTCWQASFDELTCHCGASVIYPPVPCGTRPPECTQTCARIHECDHPVYHSCHSEEKCPPCTFLTQKWCMGKHEELTIKKLWTFKETLDF,soluble
4,MAEDGPQKQQLDMPLVLDQDLTKQMRLRVESLKQRGEKKQDGEKLLRPAESVYRLDFIQQQKLQFDHWNVVLDKPGKVTITGTSQNWTPDLTNLMTRQLLDPAAIFWRKEDSDAMDWNEADALEFGERLSDLAKIRKVMYFLITFGEGVEPANLKASVVFNQL,soluble
5,MAEEKVKDEAMQIMGMFQILPRLVVFDLDYTLWPFYCECRSKREMPSMYPQAKGILSALKEKGIEMAIASRSPTSDIANTFLDKLNIKPMFVAKVSKMGVTSILVGDGVTLGAFRQGLTEFTQNHNSIEKNKQVWRDKYSGKPTSSETDKD,soluble
6,MAEETQTVETVEEQVVPEAKQPQDEKKYTDADVDAIIDKKFAKWKSEQEAEKSEAKKMAKMNEKEKADYEKQKLLDELQELKNDKTRNELTAVARQMFAESEINVNDDVLGLVVTLDAEQTKANVTTLANAFAKVIADDRKALVRQTTPSTGGGLSKQTNYGANLASKAAQQSTKLF,not soluble
7,MAEFRIAQDVVARENDRRASALKEDYEALGANLARRGVDIEAVTAKVEKFFVAVPSWGVGTGGTRFARFPGTGEPRGIFDKLDDCAVIQQLTRATPNVSLHIPWDKADPKELKARGDALGLGFDAMNSNTFSDAPGQAHSYKYGSLSHTNAATRAQAVEHNLECIEIGKAIGSKALTVWIGDGSNFPGQSNFTRAFERYLSAMAEIYKGLPDDWKLFSEHKMYEPAFYSTVVQDWGTNYLIAQTLGPKAQCLVDLGHHAPNTNIEMIVARLIQFGKLGGFHFNDSKYGDDDLDAGAIEPYRLFLVFNELVDAEARGVKGFHPAHMIDQKHNVTDPIESLINSANEIRRAYAQALLVDRAALSGYQEDNDALMATETLKRAYRTDVEPILAEARRRTGGAVDPVATYRASGYRARVAAERPASVAGGGGIIGSHHHHHH,soluble
8,MAEHVEIVEMAARDGLQNEKRFVPTADKIALINRLSDCGYARIEATSFVSPKWVPQLADSREVMAGIRRADGVRYSVLVPNMKGYEAAAAAHADEIAVFISASEGFSKANINCTIAESIERLSPVIGAAINDGLAIRGYVSCVVECPYDGPVTPQAVASVTEQLFSLGCHEVSLGDTIGRGTPDTVAAMLDAVLAIAPAHSLAGHYHDTGGRALDNIRVSLEKGLRVFDASVGGLGGSPFAPGAKGNVDTVAVVEMLHEMGFETGLDLDRLRSAGLFTQALRQDKAALEHHHHHH,soluble
9,MAEIDYKKVTGMIHSTESFGSVDGPGIRFIIFMQGCKMRCQYCHNPDTWEMETNNSKERTVEDVLKEALRYKHFWGKDGGITVSGGEAMLQIDFITALFIEAKKLGIHTTLDTCGFAYRATPEYHAILEKLLDVTDLVLLDLKEIDSEQHKIVTRQSNKNILQFARYLSDRGTPVWIRHVLVPGLTD,not soluble
10,MAEKAENLPSSSAEASEEPSPQTGPNVNQKPSILVLGMAGSGKTTFVQRLTAFLHARKTPPYVINLDPAVSKVPYPVNVDIRDTVKYKEVMKEFGMGPNGAIMTCLNLMCTRFDKVIELINKRSSDFSVCLLDTPGQIEAFTWSASGSIITDSLASSHPTVVMYIVDSARATNPTTFMSNMLYACSILYRTKLPFIVVFNKADIVKPTFALKWMQDFERFDEALEDARSSYMNDLSRSLSLVLDEFYCGLKTVCVSSATGEGFEDVMTAIDESVEAYKKEYVPMYEKVLAEKKLLDEEERKKRDEETLKGKAVHDLNKVANPDEFLESELNSKIDRIHLGGVDEENEEDAELERS,not soluble
11,MAEKLSAHCHCGAVAFTVELSDGFNTVRRCNCSYCRMRGAVAVSSPRSGIEVVRGGDKLTEYRFNTGEAVHFFCSVCGIYTFHQRRSNPQQYGVNVACIDGVSPFDFP,not soluble
12,MAERRMFAKTIIDSDAFLDMPLSSQALYFHLAMRADDDGFINNPKKLQRMVGCGEDDLKLLMVKKFILVFESGVIVIKHWKIHNYIRSDRYKPTLYQEEKNQIVEKNSKAYTFKAESSVGGQPADYQRLPQESIVQSKLGQSQGSSSENDCLKMIYHFYEENGFGTLASKTSQDFKYWLQDFIQKGASQEEACQLILHALGIAVDRNKRNYGYVNAILKSWEQQNYLSVHEVLVNDKKQVLEHAPQMTEEYQELGF,not soluble
13,MAETHSLGTKILIKIIRLYQIMISPFIGARCRFVPTCSCYGIEALKTHGLLKGGWLTLKRVLKCHPLNAGGFDPVPPKTNNNDEKK,not soluble
14,MAFGWHSMHGSIIWFLQIAQLSTAISHDQNATAVHFLISNLFFLVSTGALWFELCAIFCDSSSSTSILSTSLLMLNYFSLKFSATGERHLVATNIAHIEAHTSIVGFMISLFTPLKETIITKYEMLVRT,soluble
15,MAFKPVSITGTRRQAGQALGKLARPLMATYLEQSTVWAALRPWRGHAYLEALAHEASQALPEIWDELEGLAEGLRMPLVDILLWNCRGDLLHKTSDGCTSIAWRGDEDARWIAHNEDGDPFLYGRCHMVDVRTDDAPGYISFYYPGSLPGHTFGANRAGLVQTINNVRIRQRHAGVPRMLLARAVLDCATLDDALAVLRDHPRAGGFHHTLGAAGEPRLYSVEASPAACSIGEVARGNGHANHLVHPGSEAIGQIVTDSSRSRQRHIENLMDHWQPPVDGARLVATLLDREGELPILRCGADDPDEENTLATALFEMRDGGLTLQVHDRRDQPALRVTVCPAALEHHHHHH,not soluble
16,MAFLGYGAAAALGGALVYANLPTYLTIGAVAPTFAHLAAAKLVPIRGGPKEKEVVERNEQFTADSLFKKGPIMVMAVRRPGCMLCRREAAELHTLLPLLKEKGIELAAVVHETRGANEFKSWFSGGDVYLDTDRTFYGPNERWLPVWMGFLRFGTYSNVYKAKKAKVEGNMEGEGRLLGGVYLIANNDIVFTHLEKEWGDAADIKEVRAAVEKFSEKSK,not soluble
17,MAFQLEMVTRETVVIRLFGELDHHAVEQIRAKISTAIFQGAVTTIIWNFERLSFMDSSGVGLVLGRMRELEAVAGRTILLNPSPTVRKVFQFSGLGPWMMDATEEEAIDRVRGIVNG,soluble
18,MAFRQPNTKELKVIRKALSYYGSGDFLSHYALLVKEGEKKEVYGVSKELYGVIGELNPHYAGVKIGEVGRRFRFSLEGTFWLLRNSRNRVWVNERGEMLFLYGRDIFAGSVERASEFGENSIVFVCNRFDDVLGIGRSRHSSDELSNLPEDKVFVENLVDRGEYLRHQKTYLSF,not soluble
19,MAFSIMGILTIMEFLVYRDTRMKYEYEVDKDFTSKIRLNIDITVAMKCQYVGADVLDLAETMVTSAQGLAYQPVSLCSRTISNTSCGVSGKLWIQSTENVKVVTDAVSLVPNRLNSCSAGDI,not soluble
20,MAFVKPILLKSATCLLPRVLKLLFATLKINVGYAGEKLPDDQRGVMFAFWHGKMIAGWLLARRLYPKREISAVVSLSGDGQILSDTLDRLGFHLIRGSSSRGKEVVRRGIGVALSNGGVAAVTPDGPRGPHHRFKYGTLRLAAQHRTPVVFAEISYDNARRLKSWDRFEIPLPFSRVRVTLHVVQVPEFPTEEAFRAWADELSTGFDDALEHHHHHH,not soluble
21,MAGASETYTHTLTDVPIDIKYDSDDYFISGYSYGADVYMSSVNRVKLDSEINEDTRKFKVVADLTNMKPGTHKVPLKVVNLPSGVNATVSPTTITVTMGKKKTKEFPLEHHHHHH,not soluble
22,MAGDPMAEAGNKTQNQSATEVNASPLQPAEYFIYHNLMNDKGLIKTDFSDQPSYLSESLGLWMEFLLSKNDAPHFQDQYQHLTDSFLMSNHLVTWKIQNGQASGTNALIDDMRIMLSLDQAAAKWGRSDYAQTARDIGTSLKTYNMNNGFFTDFYDSQAASKDVTLSYVMPDALAVLKKNGIIDEETEQRNANVLYSAPLKNGFLPKTYSSETKEYTYDSEINLIDQLYAAWHLPEGDEKASVLADWIKQEFQKNGKLYGRYSAYTKEPAVQYESPSVYALAVLFLTKQHENSSVIKAIYDRMNDFEIHDPVKSYYGGYMSGTQTHSFDNLLPLLAERKLFNENIIQLEHHHHHH,soluble
